Experimental data from patent US7423017B2, “Method for treating cartilage disorders” (Genentech, Inc., priority 1997, dated 2008).
“Also recorded” adds a separate entry of the source. One block for each compound: values may come before it. Positions of bridges follow the written chain, without caps; N, C: chain ends. Residues, ends and D or L forms follow the SMILES beside them. No end group written: not given here.

How the values were obtained:
IGFBP-1 [1] = biological target: T1, IGFBP-1 (Homo sapiens, UniProt P08833); assay: BIAcore competition assay: IGFBP-1 binding to IGF-I; design: made in house; host or cells: CHO cells; conditions: for Fold potency reduction IC50 (BP1-01) / IC50 (mut): locked-helix variants
T1 sequence (P08833 26-259): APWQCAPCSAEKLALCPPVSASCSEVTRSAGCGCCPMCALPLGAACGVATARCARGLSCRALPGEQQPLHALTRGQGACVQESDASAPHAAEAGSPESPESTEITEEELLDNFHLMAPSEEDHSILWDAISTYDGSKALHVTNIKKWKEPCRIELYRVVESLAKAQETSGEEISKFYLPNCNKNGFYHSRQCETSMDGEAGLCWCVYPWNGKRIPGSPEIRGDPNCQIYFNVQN
Procedure: Two series of synthetic peptide variants were generated to determine which side chains of the BP1-01 peptide might contribute directly to binding IGFBP-1. In the first series an alanine-scanning approach (Cunningham and Wells, Science, 244: 1081-1085 (1989)) was used to remove that portion of each side chain beyond the beta carbon. The contribution of these atoms to the free energy of binding of the peptide to IGFBP-1 was then assessed by measuring the potency (IC50) of the variant for inhibiting IGFBP-1 binding to IGF-I or IGF-II in a BIAcore™ competition assay, analogous to that described for IGFBP-3.
Peptides were assayed in a BIAcore™ assay as described in WO 98/45427, supra. These inhibition assays (FIG. 35) compared the relative potency of these peptides for blocking the interaction of IGFBP-1 with IGF-1.
The peptide BP1-625 fraction was lyophilized and resuspended in 100 mM HEPES buffer, pH 7.2.

IGFBP-3 [2] = biological target: T2, IGFBP-3 (Homo sapiens, UniProt P17936); assay: competitive phage ELISA of IGF-1 mutants, IGFBP-3; assay type: binding; conditions: phage display, soluble IGFBP-3 competitor
T2 construct: made in house
T2 sequence (P17936 28-291): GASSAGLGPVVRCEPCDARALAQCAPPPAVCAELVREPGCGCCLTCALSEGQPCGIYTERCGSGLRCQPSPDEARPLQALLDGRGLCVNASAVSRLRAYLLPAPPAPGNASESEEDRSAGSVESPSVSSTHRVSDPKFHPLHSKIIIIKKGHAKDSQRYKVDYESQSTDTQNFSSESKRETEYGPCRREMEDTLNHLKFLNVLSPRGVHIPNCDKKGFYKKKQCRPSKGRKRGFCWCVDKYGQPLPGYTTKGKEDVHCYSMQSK
Method in brief: (§1)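 Alanine-scan IGF-1 mutants on phage competed with soluble IGFBP-1 or IGFBP-3 (threefold dilutions over six logs, from 5 μM and 500 nM respectively) for binding to plates coated with 1 μg/ml of the same protein in PBS pH 7.2. Incubation was 1 h at room temperature in 0.5% Tween 20/PBS. Bound phage was detected by anti-phage/HRP ELISA; IC50 is the mean±SD of at least two clones.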

IGFBP-1 [3] = assay: BIACORE kinetics: IGFBP-1 binding to immobilized IGF-1 variants; design: species or system human; conditions: from relative KD values
Procedure: (§2) The binding affinities of the IGF variants for IGFBP-1 and IGFBP-3 were determined using a BIACORE™-2000 real time kinetic interaction analysis system (Biacore, Inc., Piscataway, N.J.) to measure association (ka) and dissociation (kd) rates. Carboxymethylated dextran biosensor chips (CM5, BIAcore Inc.) were activated with EDC (N-ethyl-N′-(3-dimethylaminopropyl)-carbodiimide hydrochloride) and NHS(N-hydroxysuccinimide) according to the supplier's instructions. For immobilization, IGF mutants in 20 mM sodium acetate, pH 4.8, were injected onto the biosensor chip at a concentration of 50 μg/ml to yield approximately 450-600 RU's (resonance-responce units) of covalently-coupled protein. Unreacted groups were blocked with an injection of 1 M ethanolamine. Kinetic measurements were carried out by injecting two-fold serial dilutions (starting at 1 μM) of either IGFBP-1 or IGFBP-3 in running buffer (PBS, 0.05% TWEEN 20™, 0.1% ovalbumin, 0.1% sodium azide) at 25 °C using a flow rate of 20 μl/min. Association rates (ka) and dissociation rates (kd) were calculated separately using a 1:1 Langmuir™ association model in the BIACORE™ evaluation software v. 3.0. The equilibrium dissociation constant (KD) was calculated as kd/ka.
(§3) For measurements of IGFBP-1 binding to IGF-1, kinetics experiments were conducted using a single-cysteine IGF-1 variant, Y31C, that was immobilized onto the sensor chip surface via a disulfide linkage (BIACORE™ System Manual Supplement, 5a-1, Pharmacia (1991)).

IGFBP-3 [4] = biological target: T2, IGFBP-3; assay: BIACORE kinetics: IGFBP-3 binding to immobilized IGF-1 variants
Procedure: as §2

[5] = blood clearance, pharmacokinetics and tissue distribution of radiolabeled IGF-1 variants, IV in rats; assay type: in vivo, rat
[6] = test system: human articular cartilage explants; assay: human articular cartilage explants from diseased joints: matrix synthesis (35S-sulfate uptake); assay type: cell-based; conditions: 40 ng/ml
Procedure: The metacarpophalangeal joint of a six-month old pig was cultured as described above for bovine articular cartilage in Example 8. This explant was cultured in media alone or in media with D12K, D12R, or wild-type IGF-1 (at 10 nM) alone or in the presence of IL-1α at 1 ng/ml, as described above. Human explants were from patients undergoing joint replacement surgery. Articular cartilage was harvested, aliquoted (40-45 mg/tube) and cultured as above. […] Fresh media was added on days 0, 1, 2, and 3. Matrix breakdown was determined by measuring the amount of proteoglycans in the media using the DMMB assay as set forth above. Matrix (proteoglycan) synthesis was determined by measuring ^35S-sulfate uptake as set forth above.
Human articular cartilage explants were cultured in media or treated with IGF-1 by itself or in combination with either BP3-40 or BP3-15 at 0.1 mg/ml as set forth above. Matrix breakdown was determined by measuring the release of proteoglycans into media as described above. Matrix synthesis was determined by counting the amount of ^35S-sulfate incorporated into the cartilage tissue as described above.
The same Material and Methods (for human tissue) were used as described above, using articular cartilage explants from human joints removed from patients undergoing joint replacement. These explants were cultured with IGF-1 alone at 40 ng/ml, or IGF-1 with BP1-17, BP3-15, or BP1-16 (0.1 mg/ml), or IGF-1 with buffer (HEPES).

IGFBP-1 [7] = biological target: T1, IGFBP-1; assay: competitive phage ELISA of IGF-1 mutants, IGFBP-1; assay type: binding; design: made in house; host or cells: CHO cells; conditions: phage display, soluble IGFBP-1 competitor
Method in brief: as §1

IGFBP-1 [8] = biological target: T1, IGFBP-1; assay: BIACORE kinetics: IGFBP-1 binding to immobilized IGF-1 variants; design: made in house; host or cells: CHO cells; conditions: 25 C
Procedure: as §2, §3

IGFBP-1 [9] = biological target: T1, IGFBP-1; assay: BIAcore direct binding kinetics of peptides on immobilized IGFBP-1; design: made in house; host or cells: CHO cells; conditions: koff/kon, BIAcore kinetics; read-out: KD ± (SD or SE)
Description: WO 98/45427 published Oct. 15, 1998 discloses the preparation and characterization of the IGFBP-1 displacer peptide BP1-01 ([…]) (SEQ ID NO:26). The kinetics of BP1-01 peptide variants were examined in a BIAcore™ (BIAcore, Inc., Piscataway, N.J.) assay using IGFBP-1 covalently coupled via EDC/NHS (as described by the manufacturer) to a dextran chip. […] The latter implies a half-life for peptide dissociation from IGFBP-1 of approximately 28 sec. The association rate constant is moderately fast, consistent with the notion that the peptide may not undergo significant conformation change upon binding to IGFBP-1.
Inhibition assays for measuring relative potencies of peptides for inhibiting IGFBP-1 binding to IGF-I have been described (e.g., WO 98/45427, supra). Peptides described herein were of sufficient binding affinity to allow for direct measurement of binding affinities by surface plasmon resonance (SPR) using a BIACORE™ system. The direct binding kinetics of IGFBP-1 peptides were measured by injecting a series of 2-fold diluted peptides in running buffer (0.05% TWEEN 20™ in PBS) over a carboxy-methyl (CM) biosensor chip coupled with about 590-1000 RU of IGFBP-1 at a flow rate of 50 μl/min on a BIACORE 2000™ or BIACORE 3000™ surface-plasmon-resonance instrument. The immobilization of IGFBP-1 was performed through EDC/NHS chemistry as described by the manufacturer. Peptides were also injected through a flow cell containing IGFBP-3 as background control. Since the off-rate for most of the peptides is relatively fast (in the range of 2×10^−2 s^−1), off-rate measurement was set for 30 minutes. This allowed for regeneration of IGFBP-1 on the chip by simple dissociation, rather than by addition of eluent. For each dilution of peptides, a global fit of the sensorgram data was performed using a 1:1 Langmuir binding model.

Fold potency reduction IC50 (BP1-01) / IC50 (mut) (IGFBP-1 [1]): 8
Compound: acRAGPLEWLAEKYEG (Ac-RAGPLEWLAEKYEG; bridge 6-13; not fully specified) [(i + 7)D]

Fold potency reduction IC50 (BP1-01) / IC50 (mut) (IGFBP-1 [1]): 1
Compound: CC(C)C[C@@H]1NC(=O)[C@H](Cc2c[nH]c3ccccc23)NC(=O)[C@H](CCC(N)=O)NC(=O)[C@H](CC(C)C)NC(=O)[C@@H]2CCCN2C(=O)CNC(=O)[C@H](C)NC(=O)[C@H](CCCNC(=N)N)NC(=O)[C@@H](N)CSSC[C@@H](C(=O)N[C@@H](CCC(=O)O)C(=O)N[C@@H](CCCCN)C(=O)N[C@@H](Cc2ccc(O)cc2)C(=O)N[C@@H](Cc2ccccc2)C(=O)NCC(N)=O)NC1=O [BP1-01] (H-CRAGPLQWLCEKYFG-NH2; disulfide 1-10)

IC50 (IGFBP-3 [2]): 2.72 ± 1.11 nM | Specificity Relative BP-1 / Relative BP-3 (IGFBP-1 [3]): 16.7 | Binding to IGFBP-3 ka (IGFBP-3 [4]; 25 C): 2.7 ± 0.7 ×10^5 M^−1s^−1 | IGFBP-3 ka (IGFBP-3 [4]; Table XV): 2.7 ± 0.7 ×10^5 M^−1 | IGFBP-3 kd (IGFBP-3 [4]; Table XV): 17.1 ± 0.9 ×10^−4 s^−1 | IC50 (IGFBP-1 [7]): > 1000 nM | Binding to IGFBP-1 ka (IGFBP-1 [8]): 1.26 ± 0.8 ×10^4 M^−1s^−1
Compound: F49A: IGF-1 variant wherein phenylalanine at position 49 is changed to alanine
rate of clearance from blood ([5]; radiolabeled, IV, rats): cleared at a faster rate compared to wild-type human IGF-1 | kidney tissue-to-blood ratio ([5]; radiolabeled, IV, rats, 5, 15, 30 minutes): accumulate at statistically significant higher levels in the kidney compared to wild-type IGF-1; also recorded: accumulate at statistically significant higher ratios in the kidney compared to wild-type IGF-1 | clearance ([5]; single IV dose in rats): 7.12 ± 2.08 mL/min/kg | matrix synthesis in diseased human articular cartilage [6]: stimulated matrix synthesis in diseased human articular cartilage

Kd (IGFBP-1 [9]): 41 ± 17 nM | IGF-I Inhibition IC50 (114)/IC50 (mut) (IGFBP-1 [1]; relative to BP1-14): 3
Compound: CC(C)C[C@@H]1NC(=O)[C@H](Cc2c[nH]c3ccccc23)NC(=O)[C@H](CCC(N)=O)NC(=O)[C@H](CC(C)C)NC(=O)[C@@H]2CCCN2C(=O)CNC(=O)[C@H](C)NC(=O)[C@H](CCCNC(=N)N)NC(=O)[C@@H](NC(=O)CNC(=O)[C@@H](NC(=O)[C@H](CCC(=O)O)NC(=O)[C@@H](N)CO)C(C)C)CSSC[C@@H](C(=O)N[C@@H](CCC(=O)O)C(=O)N[C@@H](CCCCN)C(=O)N[C@@H](Cc2ccc(O)cc2)C(=O)N[C@@H](Cc2ccccc2)C(=O)N[C@@H](CO)C(=O)N[C@H](C(=O)N[C@@H](Cc2ccc(O)cc2)C(N)=O)[C@@H](C)O)NC1=O [BP1-21A] (H-SEVGCRAGPLQWLCEKYFSTY-NH2; disulfide 5-14; N-terminus assumed)

Fold potency reduction IC50 (BP1-01) / IC50 (mut) (IGFBP-1 [1]): 6
Compound: acRAGPLEWLAEKYFE (Ac-RAGPLEWLAEKYFE; bridge 6-14; not fully specified) [(i + 8)C]

Fold potency reduction IC50 (BP1-01) / IC50 (mut) (IGFBP-1 [1]): >200
Compound: acLEWLAEKYFE (Ac-LEWLAEKYFE; bridge 2-10) [(i + 8)A]

Kd (IGFBP-1 [9]): 33 ± 15 nM
Compound: CC(C)C[C@@H]1NC(=O)[C@H](Cc2c[nH]c3ccccc23)NC(=O)[C@H](CCC(N)=O)NC(=O)[C@H](CC(C)C)NC(=O)[C@@H]2CCCN2C(=O)CNC(=O)[C@H](C)NC(=O)[C@H](CCCNC(=N)N)NC(=O)[C@@H](NC(=O)[C@@H](NC(=O)[C@H](CCCNC(=N)N)NC(=O)[C@H](C)NC(=O)[C@@H](N)CCC(=O)O)C(C)C)CSSC[C@@H](C(=O)N[C@@H](CCC(=O)O)C(=O)N[C@@H](CCCCN)C(=O)N[C@@H](Cc2ccc(O)cc2)C(=O)N[C@@H](Cc2ccccc2)C(N)=O)NC1=O [BP1-20] (H-EARVCRAGPLQWLCEKYF-NH2; disulfide 5-14; N-terminus assumed)

improved potency over BP1-01 (IGFBP-1 [1]; 9-10 nM IGFBP-1): about 20 fold
Compound: GQQSCAAGPLQWLCEHYFSTYGR (disulfide 5-14 (inferred)) [BP1-625]

Fold potency reduction IC50 (BP1-01) / IC50 (mut) (IGFBP-1 [1]): 8
Compound: acRPLEWLAEKYFE (Ac-RPLEWLAEKYFE; bridge 4-12) [(i + 8)B]
